# Data reported in article PMC3005033.
# Read-outs that look alike come from different tables or passages of the source.
# Assays:
# Assay in all cases: co-IP
# [1] = target: AMPA receptor subunit GluA2 (rat (endogenous in adult Sprague-Dawley rat brain)) (UniProt P19491)
# [2] = target: AMPA receptor subunit GluA2 (rat (endogenous in adult Sprague-Dawley rat brain)) (UniProt P19491); remark: listed apart in the source
# [3] = target: GluA2/3+GluA4 (rat (endogenous in adult Sprague-Dawley rat brain))
# [4] = target: AMPA receptor subunit GluA1 (rat (endogenous in adult Sprague-Dawley rat brain)) (UniProt P19490)
# Sequence of AMPA receptor subunit GluA1 (rat (endogenous in adult Sprague-Dawley rat brain)) (P19490 19-907): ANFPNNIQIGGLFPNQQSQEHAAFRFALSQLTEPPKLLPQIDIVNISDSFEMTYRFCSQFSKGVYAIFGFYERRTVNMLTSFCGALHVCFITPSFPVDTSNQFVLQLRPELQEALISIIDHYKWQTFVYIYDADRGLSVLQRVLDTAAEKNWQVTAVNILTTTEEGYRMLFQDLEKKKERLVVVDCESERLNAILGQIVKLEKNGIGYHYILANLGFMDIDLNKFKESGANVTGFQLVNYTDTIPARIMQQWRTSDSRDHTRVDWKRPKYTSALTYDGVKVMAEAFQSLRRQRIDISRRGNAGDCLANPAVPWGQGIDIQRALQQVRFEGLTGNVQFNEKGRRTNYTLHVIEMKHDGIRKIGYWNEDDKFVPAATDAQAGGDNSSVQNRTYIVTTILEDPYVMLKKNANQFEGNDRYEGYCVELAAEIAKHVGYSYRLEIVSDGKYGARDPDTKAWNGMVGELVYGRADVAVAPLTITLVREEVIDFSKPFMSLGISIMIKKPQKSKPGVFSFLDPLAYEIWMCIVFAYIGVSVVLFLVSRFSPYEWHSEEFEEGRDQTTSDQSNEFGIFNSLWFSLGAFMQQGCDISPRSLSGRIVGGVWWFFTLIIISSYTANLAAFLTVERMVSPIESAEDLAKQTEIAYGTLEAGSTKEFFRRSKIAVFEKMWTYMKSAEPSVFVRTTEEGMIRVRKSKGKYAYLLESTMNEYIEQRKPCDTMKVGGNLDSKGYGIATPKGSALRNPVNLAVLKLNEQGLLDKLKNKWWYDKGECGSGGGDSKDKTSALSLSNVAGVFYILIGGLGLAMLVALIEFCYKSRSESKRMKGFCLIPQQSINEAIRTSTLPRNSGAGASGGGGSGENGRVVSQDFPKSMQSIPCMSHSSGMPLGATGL
# [5] = target: AMPA receptor subunit GluA1 (rat (endogenous in adult Sprague-Dawley rat brain)) (UniProt P19490); remark: listed apart in the source
# [6] = target: AMPA receptor subunit GluA1 (rat (endogenous in adult Sprague-Dawley rat brain)) (UniProt P19490); remark: listed apart in the source
# [7] = target: AMPA receptor subunit GluA1 (rat (endogenous in adult Sprague-Dawley rat brain)) (UniProt P19490); remark: listed apart in the source
# Sequence of AMPA receptor subunit GluA2 (P19491 22-883): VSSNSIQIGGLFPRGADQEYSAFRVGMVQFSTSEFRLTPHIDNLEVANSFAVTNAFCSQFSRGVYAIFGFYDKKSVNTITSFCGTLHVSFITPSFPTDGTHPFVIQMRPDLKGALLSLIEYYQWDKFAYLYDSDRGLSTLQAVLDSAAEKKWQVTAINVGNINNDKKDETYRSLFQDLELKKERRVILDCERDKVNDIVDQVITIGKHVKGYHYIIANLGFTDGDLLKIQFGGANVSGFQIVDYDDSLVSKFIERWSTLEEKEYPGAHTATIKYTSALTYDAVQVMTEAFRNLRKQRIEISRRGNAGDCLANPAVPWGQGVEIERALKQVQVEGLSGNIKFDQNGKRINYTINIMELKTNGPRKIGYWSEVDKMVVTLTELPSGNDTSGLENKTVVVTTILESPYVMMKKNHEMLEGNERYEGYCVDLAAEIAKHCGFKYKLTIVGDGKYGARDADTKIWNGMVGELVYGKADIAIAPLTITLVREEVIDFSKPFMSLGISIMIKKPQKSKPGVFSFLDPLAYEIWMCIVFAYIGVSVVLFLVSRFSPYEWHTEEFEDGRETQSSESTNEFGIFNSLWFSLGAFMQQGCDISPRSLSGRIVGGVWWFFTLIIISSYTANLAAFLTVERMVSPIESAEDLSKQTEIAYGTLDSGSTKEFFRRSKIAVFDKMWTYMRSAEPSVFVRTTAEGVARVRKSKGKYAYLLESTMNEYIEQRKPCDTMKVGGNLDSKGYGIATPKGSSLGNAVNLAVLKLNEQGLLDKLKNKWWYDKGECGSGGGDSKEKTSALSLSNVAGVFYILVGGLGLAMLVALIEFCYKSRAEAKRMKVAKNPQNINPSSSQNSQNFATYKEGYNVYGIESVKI
# Sequence of AMPA receptor subunit GluA1 (P19490 19-907): as the sequence (P19490 19-907) above
# Sequence of AMPA receptor subunit GluA2 (rat (endogenous in adult Sprague-Dawley rat brain)) (P19491 22-883): as the sequence (P19491 22-883) above
Substance,percent of GluA1 complexed with GluA2 (the paper's estimate) [1] [%],percent of GluA1 complexed with GluA2 (the paper's estimate) [2] [%],percent of GluA1 removed by IP with GluA2/3+GluA4 antibodies [3] [%],percent of GluA2 left in the unbound fraction after IP with GluA1 antibody [4] [%],percent of GluA2 left in the unbound fraction after IP with GluA1 antibody [5] [%],percent of GluA2 left in the unbound fraction after IP with GluA1 antibody [6] [%],percent of GluA2 left in the unbound fraction after IP with GluA1 antibody [7] [%]
AMPA receptor subunit GluA1 (from UniProt P19490 19-907),> 80,> 80,93,,,,
AMPA receptor subunit GluA2 (from UniProt P19491 22-883),,,,65,53,55,62
